Drawing on paper PMC7273913, this text covers in vitro FANCD2 monoubiquitination (Ube1, Ube2T, FANCL URD-RING, fluorescently labelled ubiquitin, 10 min for one molecule.

The test concerns the target Xenopus laevis FANCD2, 6xHis-tagged (Xenopus laevis).

B1: Human FANCL URD-RING (109–375) hydrophobic patch mutant L248A, F252A, L254A, I265A (domain or fragment)
chain: QFYSSLIEEIGTLGWDKLVYADTCFSTIKLKAEDASGREHLITLKLKAKYPAESPDYFVDFPVPFCASWTPQSSLISIYSQFLAAIESLKAFWDVMDEIDEKTWVLEPEKPPRSATARRIALGNNVSINIEVDPRHPTMAPECAFAGADHVVKPLGAKLSRNIHLWDPENSVLQNLKDVLEIDFPARAILEKSDFTMDCGICYAYQLDGTIPDQVCDNSQCGQPFHQICLYEWLRGLLTSRQSFNIIFGECPYCSKPITLKMSGRKH
In the case of B1, the in vitro FANCD2 monoubiquitination (Ube1, Ube2T, FANCL URD-RING, fluorescently labelled ubiquitin, 10 min at 30°C), against WT FANCL is 47 % of WT.
